# Source: PMC2568912 (The Journal of Biological Chemistry, 2008)
# B1: N-terminal HA-tagged PKD2 mutant L703X (domain or fragment, human, UniProt Q13563 1-702, looked up)
# chain: MVNSSRVQPQQPGDAKRPPAPRAPDPGRLMAGCAAVGASLAAPGGLCEQRGLEIEMQRIRQAAARDPPAGAAASPSPPLSSCSRQAWSRDNPGFEAEEEEEEVEGEEGGMVVEMDVEWRPGSRRSAASSAVSSVGARSRGLGGYHGAGHPSGRRRRREDQGPPCPSPVGGGDPLHRHLPLEGQPPRVAWAERLVRGLRGLWGTRLMEESSTNREKYLKSVLRELVTYLLFLIVLCILTYGMMSSNVYYYTRMMSQLFLDTPVSKTEKTNFKTLSSMEDFWKFTEGSLLDGLYWKMQPSNQTEADNRSFIFYENLLLGVPRIRQLRVRNGSCSIPQDLRDEIKECYDVYSVSSEDRAPFGPRNGTAWIYTSEKDLNGSSHWGIIATYSGAGYYLDLSRTREETAAQVASLKKNVWLDRGTRATFIDFSVYNANINLFCVVRLLVEFPATGGVIPSWQFQPLKLIRYVTTFDFFLAACEIIFCFFIFYYVVEEILEIRIHKLHYFRSFWNCLDVVIVVLSVVAIGINIYRTSNVEVLLQFLEDQNTFPNFEHLAYWQIQFNNIAAVTVFFVWIKLFKFINFNRTMSQLSTTMSRCAKDLFGFAIMFFIIFLAYAQLAYLVFGTQVDDFSTFQECIFTQFRIILGDINFAEIEEANRVLGPIYFTTFVFFMFFILLNMFLAIINDTYSEVKSDLAQQKAEMELSD
# Molecular target: the molecule itself
# Test: non-reducing SDS-PAGE with immunoblot
protein,measurement,value
B1,stoichiometry N,2
